US20030082150A1

Experiments:
[1] = molecular target: HLA.A1 molecule on cells that do not express the antigen MAGE-1 (infected with control adenovirus Ad-βgal) (human); assay: cell-based or functional assay
[2] = molecular target: Mage-1 antigenic nonapeptide presented by the HLA.A1 molecule on cells (human) (UniProt P43355); assay: cell-based or functional assay

Sequence: T cell receptor of the anti-Mage-1 CTL clone 82:30 (TCR)
- % lysis, 51Cr release 4 h, E/T 0.1, C1R infected Ad β gal (500 pfu/cell) [1]: 2%
- % lysis, 51Cr release 4 h, E/T 0.1, Gerlach E- infected Ad β gal (500 pfu/cell) [1]: 2%
- % lysis, 51Cr release 4 h, E/T 0.3, C1R infected Ad β gal (500 pfu/cell) [1]: 1%
- % lysis, 51Cr release 4 h, E/T 0.3, Gerlach E- infected Ad β gal (500 pfu/cell) [1]: 0%
- % lysis, 51Cr release 4 h, E/T 1, C1R infected Ad β gal (500 pfu/cell) [1]: 3%
- % lysis, 51Cr release 4 h, E/T 1, Gerlach E- infected Ad β gal (500 pfu/cell) [1]: 0%
- % lysis, 51Cr release 4 h, E/T 3, C1R infected Ad β gal (500 pfu/cell) [1]: 4%
- % lysis, 51Cr release 4 h, E/T 3, Gerlach E- infected Ad β gal (500 pfu/cell) [1]: 0%
- % lysis, 51Cr release 4 h, E/T 10, C1R infected Ad β gal (500 pfu/cell) [1]: 2%
- % lysis, 51Cr release 4 h, E/T 10, Gerlach E- infected Ad β gal (500 pfu/cell) [1]: 0%
- % lysis, 51Cr release 4 h, E/T 30, C1R infected Ad β gal (500 pfu/cell) [1]: 3%
- % lysis, 51Cr release 4 h, E/T 30, Gerlach E- infected Ad β gal (500 pfu/cell) [1]: 0%
- TNF produced by the CTL clone, +CTL, Gerlach E- infected with Ad. βgal, 50 pfu/cell [1]: 0 pg TNF
- TNF produced by the CTL clone, +CTL, Gerlach E- infected with Ad. βgal, 100 pfu/cell [1]: 0 pg TNF
- % lysis, 51Cr release 4 h, E/T 0.1, C1R infected Ad Mage-1 (500 pfu/cell) [2]: 28%
- % lysis, 51Cr release 4 h, E/T 0.1, C1R transfected with Mage-1 [2]: 19%
- % lysis, 51Cr release 4 h, E/T 0.1, Gerlach E- infected Ad Mage-1 (500 pfu/cell) [2]: 2%
- % lysis, 51Cr release 4 h, E/T 0.3, C1R infected Ad Mage-1 (500 pfu/cell) [2]: 44%
- % lysis, 51Cr release 4 h, E/T 0.3, C1R transfected with Mage-1 [2]: 25%
- % lysis, 51Cr release 4 h, E/T 0.3, Gerlach E- infected Ad Mage-1 (500 pfu/cell) [2]: 5%
- % lysis, 51Cr release 4 h, E/T 1, C1R infected Ad Mage-1 (500 pfu/cell) [2]: 44%
- % lysis, 51Cr release 4 h, E/T 1, C1R transfected with Mage-1 [2]: 30%
- % lysis, 51Cr release 4 h, E/T 1, Gerlach E- infected Ad Mage-1 (500 pfu/cell) [2]: 6%
- % lysis, 51Cr release 4 h, E/T 3, C1R infected Ad Mage-1 (500 pfu/cell) [2]: 61%
- % lysis, 51Cr release 4 h, E/T 3, C1R transfected with Mage-1 [2]: 45%
- % lysis, 51Cr release 4 h, E/T 3, Gerlach E- infected Ad Mage-1 (500 pfu/cell) [2]: 13%
- % lysis, 51Cr release 4 h, E/T 10, C1R infected Ad Mage-1 (500 pfu/cell) [2]: 59%
- % lysis, 51Cr release 4 h, E/T 10, C1R transfected with Mage-1 [2]: 40%
- % lysis, 51Cr release 4 h, E/T 10, Gerlach E- infected Ad Mage-1 (500 pfu/cell) [2]: 15%
- % lysis, 51Cr release 4 h, E/T 30, C1R infected Ad Mage-1 (500 pfu/cell) [2]: 62%
- % lysis, 51Cr release 4 h, E/T 30, C1R transfected with Mage-1 [2]: 33%
- % lysis, 51Cr release 4 h, E/T 30, Gerlach E- infected Ad Mage-1 (500 pfu/cell) [2]: 15%
- TNF produced by the CTL clone, +CTL, Gerlach E+ (HLA A1+) (Mage 1+) [2]: 45 pg TNF
- TNF produced by the CTL clone, +CTL, Gerlach E- infected with Ad. Mage 1, 50 pfu/cell [2]: 4 pg TNF
- TNF produced by the CTL clone, +CTL, Gerlach E- infected with Ad. Mage 1, 100 pfu/cell [2]: 12 pg TNF
- optical density (MTT, WEHI-164-13 viability) of 24 h supernatant, +CTL, Gerlach E+ (HLA A1+) (Mage 1+) (optical density) [2]: 0.17
- optical density (MTT, WEHI-164-13 viability) of 24 h supernatant, +CTL, Gerlach E- infected with Ad. Mage 1, 50 pfu/cell (optical density) [2]: 0.58
- optical density (MTT, WEHI-164-13 viability) of 24 h supernatant, +CTL, Gerlach E- infected with Ad. Mage 1, 100 pfu/cell (optical density) [2]: 0.355
